Legend:
NGF [1] = target: T1, NGF (Homo sapiens, UniProt P01138, DEL136-138/DEL208-209); test: BIACORE cross-reactivity test, NGF injected at 20 nM; assay type: binding; conditions: Table 3; NGF 20 nM
Procedure: (§1) The anti-NGF antibodies were examined for binding cross-reactivity with human NT-3. Briefly, goat anti-human IgG polyclonal antibody was chemically linked to a CM5 chip. Anti-NGF monoclonal antibodies were injected forming a surface of about 50 to 900 RU of immobilized antibody through the interaction with the chip coupled polyclonal antibodies. NGF or NT-3 protein at a concentration of 20 nM was injected over the surface, followed by a buffer wash to allow bound ligand to dissociate. Both association and dissociation phases were monitored and data were analyzed. Results are shown in Table 3 (NB=no binding activity observed).

[2] = test system: circulating levels of neurotrophin-3 (NT-3); test: Serum NT-3 sandwich ELISA, mice of post incision pain model; assay type: in vivo, mouse; conditions: day 4, 25 mg/kg i.p., mean±std dev, limit of detection ~40 pg/ml
Description: On day 4, after the behavioral tests from post incision pain model were completed, the mice's sera were collected and analyzed for circulating levels of neurotrophin-3 (NT-3) using a sandwich ELISA. The limit of detection (˜40 pg/ml) was defined as two standard deviations (2σ) above background with a minimum of five NT-3 standards to define the response to concentration curve.

[3] = target: T2, NT-3 signaling through p75 and TrkA in PC12 cell line (Homo sapiens, UniProt P20783); test: PC12 SRE-luciferase assay with 75 nM NT-3 instead of NGF; assay type: cell-based; conditions: read-out: IC50, blocking of NT-3 signaling
T2 construct: host or cells: NT-3 added exogenously; receptors endogenous in PC12 cells
T2 sequence (P20783 139-257): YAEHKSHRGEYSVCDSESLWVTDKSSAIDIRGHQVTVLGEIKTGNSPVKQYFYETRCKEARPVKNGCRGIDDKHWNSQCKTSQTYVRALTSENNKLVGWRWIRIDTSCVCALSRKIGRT
Procedure: The ability of NGF antibodies to block NGF signaling p75 and TrkA receptor-mediated activity was also measured in vitro using a rat adrenal medulla cell line, PC12, which express both receptors endogenously (Urdiales et al. 1998 J. Neuroscience 18(17):6767-6775). Briefly, PC12 cells were stably transfected with a reporter plasmid containing a serum response element (SRE) linked to a luciferase gene. The transfected cells were resuspended at approximately 2.5×10^5 cells per ml and plated at 50,000 cells per well in a 96-well tissue culture plate in Opti-MEM media overnight. The purified antibody proteins were serially diluted in medium (DMEM plus 0.1% BSA) and added to the plated cells at concentrations ranging from 0 to 100 nM. […] Luciferase activity was measured after incubating the cells for 6 hours at 37° C. in a humidified 7.5% CO2 incubator using BRIGHT GLOW™ luciferase assay system (Promega). Control mAb=RN624.

NGF [4] = target: T1, NGF; test: BIACORE surface kinetics, binding affinity for human NGF
Procedure: (§2) Antigen binding affinities of the antibodies for human NGF were determined by surface kinetics using a real-time biosensor surface plasmon resonance assay (BIACORE™). Antibodies were captured on either a goat, anti-human or anti-mouse IgG polyclonal antibody surface created by direct amine coupling of the capture antibody to a BIACORE™ chip. Various concentrations of human NGF were injected over the captured antibody surfaces while the association of the antigen to the antibody and the dissociation of the bound complex were monitored in real time. Kinetic analysis was performed to obtain the equilibrium dissociation constant (KD) and dissociation rate constant, and the latter was used to calculate the antigen/antibody complex dissociation t1/2 (Table 1).
Antigen binding affinities of selected purified antibodies for NGF were also determined by surface kinetics employing a real-time biosensor surface plasmon resonance assay (BIACORE™) as described above. For convenience, antibody 301272-3H10-A10 was renamed “REGN261” (HCVR/LCVR SEQ ID NOs:84/92 and hIgG1 SEQ ID NO:541); 301272-6E07-D10 was renamed “REGN263” (HCVR/LCVR SEQ ID NO:208/216 and hIgG1 SEQ ID NO:541).

rat NGF (rNGF) = rat NGF (rNGF) (Rattus norvegicus, UniProt P25427); test: BIACORE binding affinity to rat NGF
Procedure: as §2
Human NGF (NGF) is highly homologous in amino acid sequence to mouse NGF (mNGF) and rat NGF (rNGF) with about 90% identity. The binding affinities of the antibodies to both mNGF and rNGF were determined as described above.
The binding affinity of selected purified anti-NGF antibodies to mNGF and rNGF were also determined (Table 6).

[5] = target: Human NGF binding to human TrkA-hFc (Homo sapiens, UniProt P01138, DEL136-138/DEL208-209); test: BIACORE receptor blocking assay, free NGF bound to TrkA-hFc; conditions: percentage free NGF bound; NGF 10-25 nM with molar excess of antibody; NGF alone = 100%
Description: (§3) To identify blocking antibodies, a receptor blocking assay was designed using a BIACORE™ 3000 instrument. Recombinant human TrkA-hFc and human p75-hFc proteins were amine-coupled to a CM5 chip to a density of about 5000-6000 RU.

[6] = target: Human NGF binding to human p75-hFc (Homo sapiens, UniProt P01138, DEL136-138/DEL208-209); test: BIACORE receptor blocking assay, free NGF bound to p75-hFc; conditions: percentage free NGF bound; NGF 10-25 nM with molar excess of antibody; NGF alone = 100%
Description: as §3

human NT-3 = target: T3, human NT-3 (Homo sapiens, UniProt P20783); test: BIACORE cross-reactivity test, NT-3; assay type: binding; conditions: NT-3 1.25 nM to 40 nM; purified antibodies
T3 sequence (P20783 139-257): T2 sequence (P20783 139-257)
Procedure: as §1, with “NGF or NT-3 protein at a concentration of 20 nM was injected over the surface, followed by a buffer wash to allow bound ligand to dissociate.” left out

[7] = target: T4, NT-3 signaling through TrkC (engineered HEK293 cell line expressing TrkC) (Homo sapiens, UniProt P20783); test: HEK293/TrkC SRE-luciferase bioassay of NT-3 signaling; assay type: cell-based; conditions: 15 pM NT-3; 6 hours; read-out: IC50, inhibition of NT-3-mediated luciferase activity
T4 construct: host or cells: NT-3 added exogenously; partner TrkC made by an engineered HEK293 line
T4 sequence (P20783 139-257): T2 sequence (P20783 139-257)
Procedure: An engineered HEK293 cell line expressing TrkC was transfected with a SRE-luciferase reporter plasmid. NT-3 drives luciferase expression in a 6-hour assay. […] The engineered HEK293 cell line was seeded onto 96-well plates at 1×10^4 cells/well in serum-free media and incubated overnight at 37° C., 5% CO2. […] The cells were then incubated at 37° C., 5% CO2 for 6 hours. Luciferase activity was determined by adding an equal well volume of BRIGHT GLOW™ (Promega).

T1 sequence (P01138 with tags, fused parts or gaps DEL136-138/DEL208-209): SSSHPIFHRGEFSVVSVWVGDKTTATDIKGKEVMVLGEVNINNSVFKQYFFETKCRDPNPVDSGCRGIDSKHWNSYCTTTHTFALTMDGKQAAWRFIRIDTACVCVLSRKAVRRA
Chain of rat NGF (rNGF) (P25427 122-241): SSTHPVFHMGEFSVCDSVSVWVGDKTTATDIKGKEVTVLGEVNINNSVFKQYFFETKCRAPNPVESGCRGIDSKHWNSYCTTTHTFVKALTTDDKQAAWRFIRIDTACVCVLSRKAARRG
Chain of Human NGF binding to human TrkA-hFc (P01138 with tags, fused parts or gaps DEL136-138/DEL208-209): as the sequence (P01138 with tags, fused parts or gaps DEL136-138/DEL208-209) above
Chain of Human NGF binding to human p75-hFc (P01138 with tags, fused parts or gaps DEL136-138/DEL208-209): as above

tanezumab [RN624]
Kd (NGF [1]): 1.3 pM
Serum NT-3 [2]: 172 ± 114 pg/mL
IC50 [3]: ~105000 pM
Kd (NGF [4]; Table 1, read-out: KD): 1.3 pM
Kd (NGF [4]; Table 2, selected purified antibodies, read-out: KD): 1.25 pM
Kd (NGF [4]; Table 5, read-out: Human NGF KD): 1.25 pM
Kd (NGF [4]; Table 6, selected purified antibodies, read-out: NGF KD): 1.25 pM
Kd (rat NGF (rNGF); Table 5): 1.5 pM
Kd (rat NGF (rNGF); Table 6, selected purified antibodies): 1.51 pM
% Binding TrkA-hFc [5]: 10%
% Binding p75-hFc [6]: 16%
Kd (human NT-3): 1100 pM
IC50 [7]: 150000 to 200000 pM

Source: patent US8613927B2, “High affinity human antibodies to human nerve growth factor” (Regeneron Pharmaceuticals, Inc., priority 2007, dated 2013)
